The values that follow come from patent US20250282852A1 (SINOMAB BIOSCIENCE, published 2025).

For experiment [1], the target named is T1, human CD22 protein (Sino Biological) (human).
T1 construct: Bought protein coated on ELISA strips
Briefly: ELISA on coated human CD22 protein, anti-human Fc HRP detection. The method, then: The binding of the different bispecific antibodies to their respective antigens is tested with standard ELISA method known to those skilled in the art. Using SM03-Adu as an example, 2 μg/mL of human CD22 protein (Sino Biological) or 5 μg/mL of Aβ oligomer are coated separately onto ELISA stripes (Santa Cruz) overnight at 4° C. or 1 hour at room temperature, respectively. ELISA stripes are blocked with 1% BSA in PBS. Stripes are washed 2 times with PBS. Bispecific antibodies are added in the following concentration, e.g. 10 μg/mL, 2 μg/mL, 0.4 μg/mL, 0.08 μg/mL, 0.016 μg/mL, 0.0032 μg/mL, 0.00064 μg/mL and incubated for 1 hour at room temperature. Stripes are washed 3 times with PBS. Stripes are incubated with anti-human Fc HRP-conjugated antibody diluted 1:6000 in PBS for 1 hour at room temperature. Fifty μL TMB (Invitrogem) is then added. After 30 minutes incubation at room temperature, 50 μL stop solution (2N H2SO4) is added to stop the reaction. Coloration are read by plate reader.
Background: ELISA stands for enzyme-linked immunosorbent assay.

For experiment [2], the target named is T2, CD33 on HMC-3 cells (human, UniProt P20138 18-364).
T2 construct: Native antigen on HMC-3
T2 sequence (P20138 18-364 limits assumed): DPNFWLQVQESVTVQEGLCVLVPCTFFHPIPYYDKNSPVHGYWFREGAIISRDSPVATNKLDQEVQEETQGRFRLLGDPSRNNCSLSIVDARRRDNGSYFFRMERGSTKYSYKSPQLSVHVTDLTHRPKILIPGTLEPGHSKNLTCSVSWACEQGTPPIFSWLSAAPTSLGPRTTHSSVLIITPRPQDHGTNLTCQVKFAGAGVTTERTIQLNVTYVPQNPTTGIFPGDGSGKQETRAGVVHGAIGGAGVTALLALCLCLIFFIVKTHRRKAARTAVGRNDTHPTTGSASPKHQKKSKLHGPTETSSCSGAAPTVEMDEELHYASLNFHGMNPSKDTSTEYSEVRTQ
Briefly: flow cytometry on fixed HMC-3 cells, 10 µg/mL, anti-human Fc Alexa Fluor 488; graded + (weakest) to +++++ (highest). The method, then: The binding of different bispecific antibodies to HMC-3 cells is evaluated. Briefly, HMC-3 cells are seeded onto 6 well plate at a density of […]. After plating and culture for overnight, cells are detached with TrypLE™ Express enzyme. Cells are centrifuged at 300 g for 5 minutes. Cell pellets are washed once with phosphate buffer saline (pH7.4). Cells are fixed with 4% PFA in PBS for 5 minutes at room temperature. Cells are washed once with PBS. Bispecifc antibodies at a concentration of10 μg/mL are incubated with HMC-3 for 1 hour at room temperature. Cells are then washed twice with PBS. Cells are incubated with anti-human Fc Alexafluor 488-conjugated antibody diluted 1:1000 in PBS for 1 hour at room temperature. Cells are washed twice with PBS. Cell are centrifuged at 300 g for 5 minutes. Cell pellet is resuspended with 1% BSA in PBS and proceed to flow cytometry. FIG. 5 illustrates a representative result of HMC-3 cell binding by SM03-Adu.
For orientation: In flow cytometry, cells or beads pass a laser one at a time.

B1: SM06-Adu (bispecific antibody)
heavy: not shown
light: DIQLTQSPSSLSASVGDRVTISCRASQDISNYLNWYQQKPGKAPKLLIYYTSILHSGVPSRFSGSGSGTEFTLTISSLQPEDFATYFCQQGNTLPWTFGGGTKVEIKRTVAAPSVFIFPPSDEQLKSGTASVVCLLNNFYPREAKVQWKVDNALQSGNSQESVTEQDSKDSTYSLSSTLTLSKADYEKHKVYACEVTHQGLSSPVTKSFNRGEC
For the molecule B1, in experiment [1], the EC50 (read off the curve) (as a rule, the concentration that produces a half-maximal response) was approximately 0.1 µg/mL.

B2: Lin-Adu (bispecific antibody)
heavy: not shown
light: DIQMTQSPSSLSASVGDRVTITCRASESVDNYGISFMNWFQQKPGKAPKLLIYAASNQGSGVPSRFSGSGSGTDFTLTISSLQPDDFATYYCQQSKEVPWTFGQGTKVEIKRTVAAPSVFIFPPSDEQLKSGTASVVCLLNNFYPREAKVQWKVDNALQSGNSQESVTEQDSKDSTYSLSSTLTLSKADYEKHKVYACEVTHQGLSSPVTKSFNRGEC
With B2, in experiment [2], the binding result is given as “binds”.
